Test results reported in patent US10668049B2, “Methods of treating cognitive decline with transforming growth factor beta inhibitors” (The Regents of the University of California, priority 2008, dated 2020).

Legend:
[1] = molecular target: T1, astrocyte specific glutamate transporter, SLC1A2 (Rattus norvegicus, UniProt P31596); assay: Whole cell patch recording of NMDA-mediated EPSCs in cortical pyramidal neurons; format: cell-based
T1 construct: In vitro intracellular recordings were obtained from pyramidal neurons (layer 2-3) 23-28 h following the in vivo treatment; from tissue; host or cells: acute rat neocortical slices (astrocytic transporter; recordings from layer 2-3 pyramidal neurons)
Protocol: In vitro intracellular recordings were obtained from pyramidal neurons (layer 2-3) 23-28 h following the in vivo treatment with albumin or from control rats. Currents were recorded using the whole cell patch configuration, as described previously (Pavlovsky et al., 2003). In brief, glass pipettes were pulled from capillaries using a vertical puller (Narashige, Greenvale, N.Y.) and filled with a solution comprising (in mM): 150 CsCl, 1 MgCl2, 10 HEPES, 4 Na2ATP, 0.1 CaCl2, and 1.1 mM EGTA, pH adjusted to 7.2 with a final osmolarity of 290-310 mOsm. Cells were visualized using infrared differential interference phase contrast video-microscopy. Recordings were performed using AxoPatch 700B (Axon Instruments, Foster City, Calif.), digitized at 10 kHz and recorded using pClamp 9.2 (Axon Instruments, Foster City, Calif.). Patch pipette's resistance was 4-5 MΩ. Series resistance was not electronically compensated; however, cells in which series resistance varied by more than 25% were excluded from the analysis. Stimulation protocols were started at least 5 min following impalement to allow intracellular dialysis with the pipette solution. Excitatory post-synaptic currents (EPSCs) were evoked—using a bipolar stimulating electrode positioned <200 μm from the recorded cell—at 75% of the intensity producing maximal EPSCs. N-methyl-D-aspartic acid (NMDA) currents were recorded in the presence of blockers of α-amino-3-hydroxy-5-methyl-4-isoxazole-propionic acid (AMPA)/kainate (i.e., 30 μM CNQX) and of gamma-aminobutyric acid A (GABAA) receptors (i.e., 10 μM bicuculine methiodide). Cells were voltage clamped to +40 mV to alleviate NMDA receptor blockade and inactivate fast Na^+ currents. In some experiments, dihydrokainic acid (DHK, Tocris, Bristol, UK), 100 μM, was added to the extracellular solution to selectively block the astrocyte specific glutamate transporter, SLC1A2 (see Arriza et al., 1994).
To confirm that the transcriptional changes induced by albumin were associated with altered cellular functions, the clearance of extracellular glutamate and potassium in cortical slices 24 hours following albumin treatment in vivo was investigated. To measure synaptic glutamate levels during neuronal activation, the slowly inactivating (Lester et al., 1990) NMDA currents in cortical neurons were recorded by using the whole-cell patch configuration (in the presence of non-NMDA glutamate and GABA receptor blockers, see Methods). Cells were clamped at +40 mV to prevent a potential confounding effect of post-synaptic depolarization due to the accumulation of synaptic [K^+]o. […] Synaptic glutamate elicited by 50 extracellular stimulations at 2, 5, 10, 20, 50 and 100 Hz before and after adding the astrocytic SLC1A2 specific inhibitor, DHK was measured. In neurons from control animals, DHK had no effect on single EPSCs or EPSCs elicited at low stimulation frequencies (<20 Hz). […] The same experiments were then repeated 24 h following cortical application of albumin (i.e. during epileptogenesis). In contrast to the control experiments, DHK had no effect on EPSC amplitude in treated slices (FIG. 13b-c, right), supporting reduced expression of the astrocytic transporter SLC1A2.

cortical slices = assay: Extracellular potassium accumulation in cortical slices measured with ion-sensitive microelectrodes; format: cell-based, rat; details: slices 24 h following treatment with albumin; frequencies ≥10 Hz
Protocol: Electrophysiological recordings were obtained 6-10 h following perfusion with sACSF. Control slices were treated similarly, using sACSF without albumin. For extracellular recordings, glass microelectrodes (˜3 MΩ, 154 mM NaCl) were positioned in layer 4 of the neocortex. Slices were stimulated with brief (100 μs) pulses, by using bipolar stimulation electrodes placed at the border between white and gray matter in the same conical column. Trains of 50 stimuli were applied at 2, 5, 10, 20, 50 and 100 Hz, at 2.5× threshold stimulation intensity. […] Extracellular potassium concentrations ([K+]o) were measured with ion-sensitive microelectrodes (ISMEs; Lux and Neher, 1973: Jauch et al., 2002).
To study K^+ clearance from the extracellular space, K clearance was recorded from control and treated slices (24 h following treatment with albumin) by using ISMEs. Slower decay kinetics of [K^+]o in response to pressure application in BBB-treated animals has been reported (Ivens et al., 2007). Here, [K]o accumulation during neuronal activation at different frequencies of stimulation was tested. In slices from control animals, the increase in [K^+]o was limited to 25% of baseline levels (<3.75 mM) at all stimulation frequencies with the employed stimulation intensities and number of stimuli.

[2] = 24 h following albumin treatment in vivo, clamped at +40 mV

T1 sequence (P31596 whole entry): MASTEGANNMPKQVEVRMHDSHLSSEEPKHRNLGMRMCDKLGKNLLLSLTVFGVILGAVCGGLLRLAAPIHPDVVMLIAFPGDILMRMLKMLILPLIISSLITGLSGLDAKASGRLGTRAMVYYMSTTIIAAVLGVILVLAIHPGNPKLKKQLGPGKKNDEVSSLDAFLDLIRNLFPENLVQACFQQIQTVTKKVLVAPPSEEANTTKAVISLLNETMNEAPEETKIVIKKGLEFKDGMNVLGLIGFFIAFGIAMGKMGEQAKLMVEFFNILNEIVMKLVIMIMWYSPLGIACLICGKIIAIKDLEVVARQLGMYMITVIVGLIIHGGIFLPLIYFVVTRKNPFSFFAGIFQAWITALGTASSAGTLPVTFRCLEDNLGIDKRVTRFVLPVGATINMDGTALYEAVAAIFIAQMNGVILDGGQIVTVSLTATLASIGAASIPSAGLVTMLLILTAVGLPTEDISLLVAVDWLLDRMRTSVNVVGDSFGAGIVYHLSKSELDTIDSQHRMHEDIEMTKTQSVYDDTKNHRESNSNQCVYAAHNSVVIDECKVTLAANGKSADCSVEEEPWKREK

For “albumin: bovine serum albumin, used to induce epileptogenesis”, the “Mean single EPSC amplitude” value [1, 2] was 505±100 pA, the “Mean single EPSC rise-time” value [1, 2] was 14.5 ± 0.5 ms and the “EPSC amplitude on repetitive stimulation, compared to controls” value ([1]; 24 h following cortical application of albumin) was “stronger depression”. The “[K+]o accumulation during neuronal activation, level reached” value (cortical slices) was 6.7 mM.
